From publication PMC12329526, “Molecular arrangements that accompany binding of rice xylanase inhibitor protein OsXIP and the Rhizopus oryzae GH11 xylanase RXyn2” (The Journal of Biological Chemistry, 2025)

Test system: T1, O=[N+]([O-])c1ccc(O[C@@H]2OC[C@@H](O[C@@H]3OC[C@@H](O)[C@H](O)[C@H]3O)[C@H](O)[C@H]2O)cc1
T1 construct: mature form Leu20-Ser216 (197 residues), signal peptide removed, N-terminal His6 tag (pRham N-His), E. coli 10G, synthetic codon-optimised gene, monomer, 22,340 Da
Assay: purified protein
Format: biochemical, Rhizopus arrhizus
Conditions: 20 mM sodium acetate, pH 5.0, 37 °C, free enzyme without OsXIP

Sequence of RXyn2 (Rhizopus arrhizus) (chain, as listed by the source): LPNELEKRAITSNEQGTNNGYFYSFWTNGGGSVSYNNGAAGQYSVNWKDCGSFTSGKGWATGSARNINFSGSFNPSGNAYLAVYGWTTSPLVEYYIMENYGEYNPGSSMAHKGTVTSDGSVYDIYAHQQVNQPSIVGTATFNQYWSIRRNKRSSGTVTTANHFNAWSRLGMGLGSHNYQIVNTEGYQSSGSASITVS

## RXyn2 (Rhizopus arrhizus)
  Km: 5.05 ± 0.29 mM
